{
  "source": "patent US8455615B2",
  "about": "“Methods and compositions for prostate cancer immunotherapy” (Beth Israel Deaconess Medical Center, priority 2008, dated 2013)",
  "key": {"[1]": {"target": "T1, HLA-A2.1 (Homo sapiens, UniProt P04439, D140Y/D185E/D98H/E176V/E277Q/G131W/G231S/I119V/I121R/I166T/I218V/L300P/L318F/N151K/N90K/P208A/P217A/Q86G/Q94H/R138H/R169H/T345S)", "T1 construct": "stabilize MHC class I molecules from the T2 cell line; endogenous in cells; host or cells: T2 cells", "experiment": "Peptide-HLA-A2.1 dissociation rate on T2 cells with Brefeldin A (SIM2 peptides)", "assay_type": "cell-based", "conditions": "50 μg/ml peptide, loss of A2.1 expression over time", "experimental": "T2 cells were incubated overnight with 50 μg/ml of each candidate peptide at 37° C. in serum-free Iscove's Modified Dulbecco's Medium (IMDM). Cells were then incubated with Brefeldin A (Sigma, St. Louis, Mo.) at 10 μg/ml for 1 hour, washed, and incubated at 37° C. for 0, 2, 4 or 6 hours in the presence of Brefeldin A (50 ng/ml). Cells were then stained with BB7.2 mAb. For each time point, peptide-induced HLA-A2.1 expression was calculated as the difference of the mean fluorescence of peptide-loaded T2 cells and mean fluorescence of negative peptide-loaded T2 cells. The rate of dissociation is reflected by the loss of A2.1 expression over time."}, "[2]": {"system": "transgenic HHD mice", "experiment": "Immunization of HHD mice with SIM2 peptides, IFN-γ ELISPOT on splenocytes", "assay_type": "in vivo, mouse", "conditions": "male HHD mice, s.c. peptide in IFA with HBVcore128-140 helper epitope, 10-12 days; P<0.01 for SIM2(87), P<0.001 for other epitopes", "experimental": "These nine SIM2 peptides were then tested for their capacity to elicit in vivo CTL responses in transgenic HHD mice. Ten to 12-week old male HHD mice were injected subcutaneously at the basis of the tail with […] of each candidate peptide emulsified in 50 μl of Incomplete Freund's Adjuvant (IFA) and 50 μl PBS in the presence of 150 μg of the I-A^b restricted HBVcore128-140 T helper epitope ([…]; SEQ ID NO: 88). Ten to twelve days post-immunization, spleens were harvested and splenocytes tested for peptide-induced specific release of IFN-γ by ELISPOT. To perform the ELISPOT assays, 96-well Millipore IP plates were coated with 100 μl/well mouse IFN-γ specific capture mAb (AN18, Mabtech Inc., Mariemont, Ohio) at a concentration of 10 μg/ml in PBS overnight at 4° C. Wells were washed with PBS and saturated with RPMI/10% FCS for 1 hour at 37° C. A total of 2.5×10^5 splenocytes were seeded in each well in four replicates and 5×10^4 peptide-loaded (10 μg peptide/ml, for 2 hours at 37° C.) splenocytes pretreated with 50 μg/ml Mitomycin C for 1 hour were added to each well. Plates were incubated for 1-2 days at 37° C. in 5% CO2, washed 5 times with PBS, and then incubated with 1 μg/ml of biotinylated rat anti-mouse IFN-γ mAb (R4-6A2, Mabtech Inc.) for 24 hours at 4° C. or at room temperature for 2 hours. The wells were washed, and incubated with 100 μl of diluted alkaline phosphatase-conjugated streptavidin for 1 hour at room temperature. Spots were developed by adding […] substrates (5-bromo-4,3-indolyl phosphate and nitroblue tetrazolium) and counted using the ELRO4 AID ELISPOT Reader System (Autoimmun Diagnostika GmbH, Straf3berg, Germany)."}, "[3]": {"target": "T1, HLA-A2.1", "experiment": "MHC stabilization assay on T2 cells (SIM2 peptides)", "assay_type": "cell-based", "conditions": "50 μg peptide/250×10^3 cells/ml overnight at 37° C., BB7.2 mAb, flow cytometry", "experimental": "Epitope candidates were evaluated for binding to HLA-A2.1 using an MHC stabilization assay. The assay is based on the ability of suitable peptides to stabilize MHC class I molecules from the T2 cell line. T2 cells lack a functional transporter associated with antigen presentation (TAP) and as a result accumulate empty, unstable class I molecules on the cell surface. These molecules on the cell surface dissociate rapidly unless they are stabilized by the addition of an appropriate binding peptide. In this assay, the flu M1 HLA-A*0201-binding peptide was used as a reference.\nBriefly, T2 cells were cultured for 6 hours in serum-free IMDM (ATCC) prior to the addition of candidate peptides at a concentration of 50 μg/250×10^3 cells/ml and incubated overnight at 37° C. Cells were washed, and surface HLA-A2.1 molecules were stained with FITC mouse anti-human HLA-A2 mAb (clone BB7.2, Mouse IgG2b κ, BD Pharmingen) for 1 hour at 4° C. Cells were then washed three times with PBS and analyzed by flow cytometry. A negative control peptide (NEG, see FIG. 6A) and the flu matrix peptide M1 binder peptide (M1, see FIG. 6A) served as controls. The relative binding affinity of a given peptide was calculated as MFI(peptide)/MFI(negative peptide). Only relative binding affinities of 1.5 or higher were considered for further testing."}},
  "data": [
    {"substance": "FLDSRVTEV (listed as Homo sapiens) [SIM2(244)]", "values": [
      {"measurement": "peptide-HLA dissociation rate (weak or strong stabilizing epitope)", "setting": "[1]", "result": "strong stabilizing"},
      {"measurement": "peptide-specific IFN-γ release by splenocytes (ELISPOT), immunogenicity", "setting": "[2]", "result": "higher numbers of splenocytes to release IFN-γ"}
    ]},
    {"substance": "KLIFLDSRV (listed as Homo sapiens) [SIM2(241)]", "values": [
      {"measurement": "peptide-HLA dissociation rate (weak or strong stabilizing epitope)", "setting": "[1]", "result": "strong stabilizing"},
      {"measurement": "peptide-specific IFN-γ release by splenocytes (ELISPOT), immunogenicity", "setting": "[2]", "result": "higher numbers of splenocytes to release IFN-γ"}
    ]},
    {"substance": "SIM2(25): SIM2 peptide that binds tightly to A2.1 but was not immunogenic; sequence not printed (KLLPLPSAI)", "values": [
      {"measurement": "binding to / stabilization of HLA-A2.1 molecules", "setting": "[3]", "result": "bind tightly"},
      {"measurement": "peptide-specific IFN-γ release by splenocytes (ELISPOT), immunogenicity", "setting": "[2]", "result": "not immunogenic"}
    ]},
    {"substance": "SIM2(199): SIM2 peptide able to stabilize HLA-A2.1 molecules, not immunogenic; sequence not printed (SLYDSCYQI)", "values": [
      {"measurement": "peptide-HLA dissociation rate (weak or strong stabilizing epitope)", "setting": "[1]", "result": "weak stabilizing"},
      {"measurement": "binding to / stabilization of HLA-A2.1 molecules", "setting": "[3]", "result": "bind tightly"},
      {"measurement": "peptide-specific IFN-γ release by splenocytes (ELISPOT), immunogenicity", "setting": "[2]", "result": "not immunogenic"}
    ]},
    {"substance": "SLDLKLIFL (listed as Homo sapiens) [SIM2(237)]", "values": [
      {"measurement": "peptide-HLA dissociation rate (weak or strong stabilizing epitope)", "setting": "[1]", "result": "weak stabilizing"},
      {"measurement": "peptide-specific IFN-γ release by splenocytes (ELISPOT), immunogenicity", "setting": "[2]", "result": "higher numbers of splenocytes to release IFN-γ"}
    ]},
    {"substance": "TLDGFVFVV (listed as Homo sapiens) [SIM2(87)]", "values": [
      {"measurement": "peptide-HLA dissociation rate (weak or strong stabilizing epitope)", "setting": "[1]", "result": "strong stabilizing"},
      {"measurement": "peptide-specific IFN-γ release by splenocytes (ELISPOT), immunogenicity", "setting": "[2]", "result": "higher numbers of splenocytes to release IFN-γ"}
    ]},
    {"substance": "YQIVGLVAV (listed as Homo sapiens) [SIM2(205)]", "values": [
      {"measurement": "peptide-HLA dissociation rate (weak or strong stabilizing epitope)", "setting": "[1]", "result": "strong stabilizing"},
      {"measurement": "peptide-specific IFN-γ release by splenocytes (ELISPOT), immunogenicity", "setting": "[2]", "result": "higher numbers of splenocytes to release IFN-γ"}
    ]},
    {"substance": "epitope 84: SIM2 peptide able to stabilize HLA-A2.1 molecules, weak stabilizing epitope; sequence not printed (LLQTLDGFV)", "values": [
      {"measurement": "peptide-HLA dissociation rate (weak or strong stabilizing epitope)", "setting": "[1]", "result": "weak stabilizing"}
    ]},
    {"substance": "epitope 430: SIM2 peptide able to stabilize HLA-A2.1 molecules, weak stabilizing epitope; sequence not printed (LLYTPSYSL)", "values": [
      {"measurement": "peptide-HLA dissociation rate (weak or strong stabilizing epitope)", "setting": "[1]", "result": "weak stabilizing"}
    ]}
  ]
}
